Values of other authors as cited in PMC3929396.

Target: CCR5 (Homo sapiens) (UniProt P51681)
Assay: SPR

UniProt P51681, sequence (P51681 whole entry): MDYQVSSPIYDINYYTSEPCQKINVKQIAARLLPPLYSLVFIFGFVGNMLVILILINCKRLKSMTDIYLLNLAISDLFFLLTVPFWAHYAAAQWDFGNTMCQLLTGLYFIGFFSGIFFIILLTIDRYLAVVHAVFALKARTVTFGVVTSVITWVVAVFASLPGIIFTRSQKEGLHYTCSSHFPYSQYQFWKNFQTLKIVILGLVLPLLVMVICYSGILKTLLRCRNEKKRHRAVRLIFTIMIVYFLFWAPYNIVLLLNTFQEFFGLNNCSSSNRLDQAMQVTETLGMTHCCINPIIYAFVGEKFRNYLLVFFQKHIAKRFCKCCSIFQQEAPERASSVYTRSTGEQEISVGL

In the case of LukE (from UniProt O54081), the Kd is given as 39.6 nM.
